{"source": "patent US20220265842A1", "about": "“ANTI-CD40 ANTIBODY DRUG CONJUGATES” (priority 2017, published 2022)", "binders": {"B1": {"name": "Example 12-hydrolyzed (human), n=4 (antibody, human IgG1, kappa, L234A L235A, V domains shown)", "VH": "EVQLVESGGGLVKPGGSLRLSCAASGFTFSDYGMNWVRQAPGKGLEWIAYISSGRGNIYYADTVKGRFTISRDNAKNSLYLQMNSLRAEDTAVYYCARSWGYFDVWGQGTTVTVSS", "VL": "DIVMTQSPDSLAVSLGERATINCKSSQSLLNRGNQKNYLTWFQQKPGQPPKLLIYWASTRESGVPDRFSGSGSGTDFTLTISSLQAEDVAVYYCQNDYTYPLTFGQGTKLEIKR", "modifications": "glucocorticoid drug-linker of Precursor Example 12 (maleimide, thiosuccinimide ring hydrolyzed) on cysteine thiols of reduced disulfides; n=4 per antibody; positions not given"}, "B2": {"name": "Human anti-CD40 antibody Ab102 (antibody, human IgG1, kappa, L234A L235A, V domains shown)", "VH": "B1 VH", "VL": "B1 VL"}, "B3": {"name": "Example 13-hydrolyzed (human), n=4 (antibody, human IgG1, kappa, L234A L235A, V domains shown)", "VH": "B1 VH", "VL": "B1 VL", "modifications": "glucocorticoid drug-linker of Precursor Example 13 (maleimide, thiosuccinimide ring hydrolyzed) on cysteine thiols of reduced disulfides; n=4 per antibody; positions not given"}, "B4": {"name": "Example 28-conjugated (human), n=2 (antibody, human IgG1, kappa, L234A L235A, DAR 2, V domains shown)", "VH": "B1 VH", "VL": "B1 VL", "modifications": "glucocorticoid drug-linker of Precursor Example 28 (bromoacetamide) on cysteine thiols of reduced interchain disulfides; n=2 per antibody; positions not given"}, "B5": {"name": "Example 28-conjugated (human), n=4 (antibody, human IgG1, kappa, L234A L235A, DAR 4, V domains shown)", "VH": "B1 VH", "VL": "B1 VL", "modifications": "glucocorticoid drug-linker of Precursor Example 28 (bromoacetamide) on cysteine thiols of reduced interchain disulfides; n=4 per antibody; positions not given"}, "B6": {"name": "Example 4-conjugated (human), n=4 (antibody, human IgG1, kappa, L234A L235A, DAR 4, V domains shown)", "VH": "B1 VH", "VL": "B1 VL", "modifications": "glucocorticoid drug-linker of Precursor Example 4 (bromoacetamide) on cysteine thiols of reduced interchain disulfides; n=4 per antibody; positions not given"}}}
{"target": "human CD40 on LPS-stimulated human monocyte-derived dendritic cells (human, UniProt P25942 21-277)", "sequence (P25942 21-277 limits assumed)": "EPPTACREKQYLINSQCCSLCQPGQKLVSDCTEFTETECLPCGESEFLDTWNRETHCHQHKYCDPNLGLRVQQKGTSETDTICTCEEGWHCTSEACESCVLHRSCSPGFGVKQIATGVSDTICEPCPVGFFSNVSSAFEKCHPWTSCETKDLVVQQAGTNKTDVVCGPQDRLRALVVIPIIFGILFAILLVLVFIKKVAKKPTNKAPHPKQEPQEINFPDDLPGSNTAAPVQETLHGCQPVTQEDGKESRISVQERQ", "experiment": "cell-based or functional assay", "units": {"IL-6 release IC50": "µg/mL", "Max Inhibition (%)": "%"}}
{"binder": "B1", "IL-6 release IC50": 0.04, "Max Inhibition (%)": 99.5}
{"binder": "B2", "IL-6 release IC50": 0.18, "Max Inhibition (%)": 44.5}
{"binder": "B3", "IL-6 release IC50": 0.14, "Max Inhibition (%)": 83.3}
{"binder": "B4", "IL-6 release IC50": 0.03, "Max Inhibition (%)": 81.8}
{"binder": "B5", "IL-6 release IC50": 0.05, "Max Inhibition (%)": 87.6}
{"target": "human CD40 Transcript 1 (Myc-DDK-tagged) on HEK293 GRE reporter cells (human, UniProt P25942 21-277)", "sequence (P25942 21-277)": "as the sequence (P25942 21-277 limits assumed) above", "experiment": "cell-based or functional assay", "units": {"hCD40 GRE (% max)": "%", "hCD40 GRE EC50": "µg/mL"}}
{"binder": "B1", "hCD40 GRE (% max)": 163, "hCD40 GRE EC50": 0.19}
{"binder": "B3", "hCD40 GRE (% max)": 67, "hCD40 GRE EC50": 0.29}
{"binder": "B6", "hCD40 GRE (% max)": 88, "hCD40 GRE EC50": 6.57}
{"binder": "B4", "hCD40 GRE (% max)": 90, "hCD40 GRE EC50": 16.5}
{"binder": "B5", "hCD40 GRE (% max)": 77, "hCD40 GRE EC50": 0.53}
